B1: Ib_S2_P4E.1_K4.1_C4.1_H4.1_[G2A]_A4.1_F4.1_[A9G]_T4.1 (ssRNA)
RNA: UUUGAUUAAUAUGAUAUCGUUCUUUCUUAUAUAUUGUUCUUUCUCGAUAUCAUAUUAAUCUUU
B2: Ib_S2_P4E.1_K4.1_C4.1_H4.1_A4.1_[T7A]_F4.1_[T8C]_T4.1 (ssRNA)
RNA: B1 RNA with A29G, U34A, U35C, G36A
B3: Ib_S2_P4E.1_K4.1_C4.1_H4.1_[A4G]_A4.1_F4.1_[A9G]_T4.1 (ssRNA)
RNA: B1 RNA with A29G, A31G
B4: Ic_S2_P4E.1_K4.1_C4.1_H4.1_A4.1_F4.1_[T8A]_T4.1 (ssRNA)
RNA: B1 RNA with A29G, U35A, G36A
B5: Ib_S2_P4E.1_K4.1_C4.1_H4.1_A4.1_[A6C]_F4.1_[T8A]_T4.1 (ssRNA)
RNA: B1 RNA with A29G, A33C, U35A, G36A
B6: Ib_S2_P4E.1_K4.1_C4.1_H4.1_[G2C]_A4.1_F4.1_[A9T]_T4.1 (ssRNA)
RNA: B1 RNA with A29C, G36U
B7: Ib_S2_P4E.1_K4.1_C4.1_H4.1_[A4C]_A4.1_F4.1_[A9C]_T4.1 (ssRNA)
RNA: B1 RNA with A29G, A31C, G36C
B8: Ib_S2_P4E.1_K4.1_C4.1_H4.1_A4.1_[T5C]_F4.1_[T8A]_T4.1 (ssRNA)
RNA: B1 RNA with A29G, U32C, U35A, G36A
B9: Ib_S2_P4E.1_K4.1_C4.1_H4.1_A4.1_[A6C]_F4.1_[T8C]_T4.1 (ssRNA)
RNA: B1 RNA with A29G, A33C, U35C, G36A
B10: Ib_S2_P4E.1_K4.1_C4.1_H4.1_A4.1_[A6T]_F4.1_[T8A]_T4.1 (ssRNA)
RNA: B1 RNA with A29G, A33U, U35A, G36A
B11: Ib_S2_P4E.1_K4.1_C4.1_H4.1_A4.1_[T5A]_F4.1_[T8A]_T4.1 (ssRNA)
RNA: B1 RNA with A29G, U32A, U35A, G36A
B12: Ib_S2_P4E.1_K4.1_C4.1_H4.1_[A4G]_A4.1_F4.1_[A9C]_T4.1 (ssRNA)
RNA: B1 RNA with A29G, A31G, G36C
B13: Ib_S2_P4E.1_K4.1_C4.1_H4.1_[A4T]_A4.1_F4.1_[A9G]_T4.1 (ssRNA)
RNA: B1 RNA with A29G, A31U
B14: Ic_S2_P4E.1_K4.1_C4.1_H4.1_A4.1_[A6T]_F4.1_[T8C]_T4.1 (ssRNA)
RNA: B1 RNA with A29G, A33U, U35C, G36A
B15: Ib_S2_P4E.1_K4.1_C4.1_H4.1_[T3C]_A4.1_F4.1_[A9C]_T4.1 (ssRNA)
RNA: B1 RNA with A29G, U30C, G36C
B16: Ib_S2_P4E.1_K4.1_C4.1_H4.1_[T3C]_A4.1_F4.1_[A9T]_T4.1 (ssRNA)
RNA: B1 RNA with A29G, U30C, G36U
B17: Ib_S2_P4E.1_K4.1_C4.1_H4.1_A4.1_[T5A]_F4.1_[T8C]_T4.1 (ssRNA)
RNA: B1 RNA with A29G, U32A, U35C, G36A
B18: Ib_S2_P4E.1_K4.1_C4.1_H4.1_[G2A]_A4.1_F4.1_[A9C]_T4.1 (ssRNA)
RNA: B1 RNA with G36C
B19: Ib_S2_P4E.1_K4.1_C4.1_H4.1_[G2T]_A4.1_F4.1_[A9T]_T4.1 (ssRNA)
RNA: B1 RNA with A29U, G36U
B20: Ic_S2_P4E.1_K4.1_C4.1_H4.1_A4.1_[T7G]_F4.1_[T8C]_T4.1 (ssRNA)
RNA: B1 RNA with A29G, U34G, U35C, G36A
B21: Ib_S2_P4E.1_K4.1_C4.1_H4.1_[A4G]_A4.1_F4.1_[A9T]_T4.1 (ssRNA)
RNA: B1 RNA with A29G, A31G, G36U
B22: Ia_S2_P4E.1_K4.1_C4.1_H4.1_A4.1_F4.1_[A9C]_T4.1 (ssRNA)
RNA: B1 RNA with A29G, G36C
B23: Ic_S2_P4E.1_K4.1_C4.1_H4.1_A4.1_[T7C]_F4.1_[T8C]_T4.1 (ssRNA)
RNA: B1 RNA with A29G, U34C, U35C, G36A

Substitutions are numbered along the chain they refer to. Names may count otherwise.

In the data set the target is T1, PUF4 RNA-binding domain (Saccharomyces cerevisiae, UniProt P25339 537-888).
T1 sequence: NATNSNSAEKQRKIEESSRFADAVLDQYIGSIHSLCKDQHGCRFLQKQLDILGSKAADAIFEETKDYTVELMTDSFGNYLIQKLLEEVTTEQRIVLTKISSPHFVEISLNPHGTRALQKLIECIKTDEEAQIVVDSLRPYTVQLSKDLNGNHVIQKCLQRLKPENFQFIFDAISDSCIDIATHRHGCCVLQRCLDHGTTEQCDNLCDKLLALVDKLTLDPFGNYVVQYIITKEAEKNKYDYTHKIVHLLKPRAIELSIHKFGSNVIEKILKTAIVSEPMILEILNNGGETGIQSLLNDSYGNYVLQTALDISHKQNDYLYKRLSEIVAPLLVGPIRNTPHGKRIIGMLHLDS
Kind of data set: Mg; RNA-MaP; 20 mM Na-HEPES pH 7.4, 30 mM KOAc, 0.75 mM MgCl2, 0.1% Tween-20, 5% glycerol, 0.1 mg/mL BSA, 2 mM DTT; 25 C; 0.0125-409.6 nM protein. The note with it: tags: N-His6-TEV cleaved; C-SNAP kept, Cy3B-labelled; label: tethered on chip by stalled RNA polymerase.
Regarding B1, the Kd (commonly a measure of binding affinity in units of concentration) came to 203 nM. Next, B2: 18.8 nM; B3: 28.9 nM; B4: 2.04 nM. Next, B5: 10.7 nM; B6: 983 nM; B7: 624 nM. With B8 the figure was 2.52 nM; with B9, 30.6 nM.

Molecule B10 showed a Kd of 17.8 nM. Next, B11: 13.5 nM; B12: 11.9 nM. Next, B13: 63.2 nM; B14: 104 nM; B15: 1070 nM. With B16 the figure was 957 nM; with B17, 58.5 nM; with B18, 200 nM. As to B19, the Kd was found to be 1670 nM.

B20 came in with a Kd of 42 nM. Next, B21: 5.78 nM; B22: 2.83 nM.

Regarding B23, binding was characterised by a dissociation constant (Kd) of 12 nM.

The values above are taken from publication PMC9352680, “A comprehensive thermodynamic model for RNA binding by the Saccharomyces cerevisiae Pumilio protein PUF4”.
